In patent US8748407B2 (The Research Foundation for the State University of New York, priority 2010, dated 2014):

B1: AG1407: full length 100-nt RNA aptamer, most enriched SELEX sequence against GluA2Qflip (nucleic acid)
chain: GGGAGAAUUCAACUGCCAUCUAGGCAGAUUGUGAAGCGUAGGCUCGAGUUUGUCCCGCGAGCCAAAGAUUCCAGAAGUACUACAAGCUUCUGGACUCGGU
modifications: RNA, backbone not given here

Molecular target: T1, GluA2Qflip (Rattus norvegicus, UniProt P19491)
T1 construct: expressed in transfected cells; host or cells: HEK-293S
T1 sequence (P19491 22-883 isoform P19491-2): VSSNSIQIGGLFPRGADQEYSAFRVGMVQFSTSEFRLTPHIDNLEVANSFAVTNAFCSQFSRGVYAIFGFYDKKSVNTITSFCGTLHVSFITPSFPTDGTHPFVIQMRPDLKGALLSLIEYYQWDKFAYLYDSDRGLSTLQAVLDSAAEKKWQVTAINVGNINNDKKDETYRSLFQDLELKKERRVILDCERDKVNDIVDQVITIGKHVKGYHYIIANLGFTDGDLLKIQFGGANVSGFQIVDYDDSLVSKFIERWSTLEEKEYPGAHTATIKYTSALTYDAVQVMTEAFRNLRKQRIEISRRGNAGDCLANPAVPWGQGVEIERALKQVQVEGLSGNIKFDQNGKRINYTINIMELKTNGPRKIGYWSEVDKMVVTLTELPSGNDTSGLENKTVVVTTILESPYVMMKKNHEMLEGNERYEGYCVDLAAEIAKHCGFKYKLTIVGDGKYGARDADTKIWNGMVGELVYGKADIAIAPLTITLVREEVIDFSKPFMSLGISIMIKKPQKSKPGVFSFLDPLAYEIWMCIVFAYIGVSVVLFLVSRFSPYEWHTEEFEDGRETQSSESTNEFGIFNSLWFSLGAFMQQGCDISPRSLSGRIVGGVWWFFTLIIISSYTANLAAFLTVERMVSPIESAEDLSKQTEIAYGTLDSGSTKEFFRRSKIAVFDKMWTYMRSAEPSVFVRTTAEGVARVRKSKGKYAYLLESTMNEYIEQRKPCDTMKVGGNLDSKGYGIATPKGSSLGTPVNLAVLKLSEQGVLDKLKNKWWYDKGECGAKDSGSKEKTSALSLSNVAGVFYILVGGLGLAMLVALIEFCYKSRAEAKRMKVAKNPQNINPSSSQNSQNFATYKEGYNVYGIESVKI
Experiment: Whole-cell current recording, GluA2Qflip in HEK-293 cells
Format: cell-based
Source text: The original cDNAs in pBlueScript encoding rat GluA1, 2 and 3 AMPA receptors and GluK2 kainate receptor were kindly provided by Steve Heinemann. The GluA4 DNA plasmid was kindly provided by Peter Seeburg. The GluK1 plasmid was kindly provided by Geoffrey Swanson. The cDNAs of all three NMDA receptor subunits were gifts from John Woodward. All DNA plasmids were propagated using Escherichia coli host (DH5α) and purified using QIAGEN DNA purification kits.
All of the receptors were transiently expressed in HEK-293S cell. HEK-293S cells were maintained in Dulbecco's modified Eagle's medium (DMEM) supplemented with 10% fetal bovine serum and 1% penicillin in a 37° C., 5% CO2, humidified incubator. Receptors were transiently transfected by using calcium phosphate or lipofectamine 2000 (Invitrogen). The DNA plasmids encoding green fluorescent protein (GFP) and T-antigen (TAg) were cotransfected in HEK-293 S cells. GFP was used as a transfection marker for cell recording, and TAg was cotransfected to potentiate the receptor expression at the single-cell level^6. Transfected cells were allowed to grow for 48 hour before they were used for recording.
The procedure for whole-cell current recording to assay the inhibitory property of an RNA aptamer is known to those of skill in the art and has been previously described^7. […] The extracellular buffer composition is described above (see “Receptor Preparation”). For recording of the NMDA channels, the intracellualr solution contained (in mM) 140 CsCl, 1 MgCl2, 0.1 EGTA, and 10 HEPES (pH 7.2 adjusted by […]), while the extracellular solution contained (in mM) 135 NaCl, 5.4 KCl, 1.8 CaCl2, 10 glucose and 5 HEPES (pH 7.2 adjusted by NaOH). In the extracellular buffer, 2 μM of glycine was added (glycine was the co-agonist of NMDA receptor)^2. All reagents including aptamer were dissolved in the corresponding extracellular buffer and used. […] The whole-cell current was recorded using an Axopatch-200B amplifier at a cutoff frequency of 2-20 kHz by a built-in, eight-pole Bessel filter and digitized at 5-50 kHz sampling frequency using a Digidata 1322A from Axon Instruments (Molecular Devices, Sunnyvale, Calif.). The pClamp 8 software (Molecular Devices) was used for data acquisition. All whole-cell recordings were at −60 mV and 22° C.
To deliver AG56 to a HEK-293 cell, a “Ψ”-shaped flow device was used. […] In all experiments reported in this study, a 6-second preincubation flow protocol was used for full aptamer preincubation. […] The corrected current amplitude was used for data analysis.
Determination of KI,app by the ratio of the current amplitude in the absence and presence of inhibitor or A/A(I)—see FIG. 5 in the text. Equ. 10a and 10b were derived based on one inhibitor binding to the receptor. KI, app is the apparent inhibition constant for the inhibitor; other terms have been defined previously.
Under this condition, the inhibition constant for the closed-channel conformation was determined from the ratio of the amplitude according to equ. 10a and 10b. Likewise, at a saturating ligand concentration (i.e., L>>K1), the majority of the receptors were in the open-channel state. Consequently, the inhibition constant associated with the open-channel conformation was measured. The basis of using the two ligand concentrations that corresponded to ˜4% and ˜96% fraction of the open-channel receptor form^7 to determine the corresponding inhibition constant was a putative difference in inhibition constant between the closed-channel and the open-channel conformation. At those low and high ligand concentrations^7, the apparent inhibition constants obtained were considered pertinent to the closed-channel and the open-channel conformations, respectively. Examples of using the current amplitude to determine the inhibition constant for an inhibitor include our previous study of two 2,3-benzodiazepine derivatives with the GluA2Qflip AMPA receptor^15.

Molecule | inhibitory function of shorter versions of AG1407, based on A/A(I) (GluA2Qflip) | A/A(I) value (0.5 μM AG1407, 0.5 mM glutamate) | A/A(I) value (0.5 μM AG1407, 3 mM glutamate) | A/A(I), ratio of current amplitudes in absence and presence of aptamer (500 nM aptamer, 3 mM glutamate) | inhibition of the open-channel conformation (GluA2Qflip, high glutamate concentration)
45 nt RNA: truncated AG1407 version with the bulge at the U50 position removed (GGUUCAACUGCCAUCUAGGCAGAUUGUGAAGCGUAGGCUCGAGCC; listed as RNA, chemistry not given here) | total loss of inhibitory function | – | – | – | –
46 nt RNA: truncated AG1407 version with three-way junction shortened by deleting UUGUGA sequence (GGAGAAUCAACUGCCAUCUAGGCAGAAGCGUAGGCUCGAUUUGUCC; listed as RNA, chemistry not given here) | total loss of inhibitory function | – | – | – | –
48 nt RNA: truncated AG1407 version with base-paired stem in first stem-loop region truncated (GGAGAAUCAACUCAUCUAGAGAUUGUGAAGCGUAGGCUCGAUUUGUCC; listed as RNA, chemistry not given here) | total loss of inhibitory function | – | – | – | –
B1 | – | significantly larger than 1.0 | significantly larger than 1.0 | one of the most potent inhibitors | inhibited the open-channel
